Data: the DeepSol protein solubility set

experiment: soluble on expression in E. coli; label from the status in PepcDB or PDB records

Sequence	soluble on expression in E. coli
MGSDKIHHHHHHMDTELARTFLTVAATGNFVAAASRLHVTQSTVSARIQTLETTLGARLFQRGRNGAELTASGKRFLRHAKHLVRTVEQALHDVGLPQGFHDVLTLSGRIALWEGFLPHWVAWMREAAPDVSLRLEIGFEADIMQGLIEGTTDIGVMYTPTSRPGLVVEPLFDENLMLVTSDLARGWPEEGYIHIDWGPEFHAQFSDHFPDAPPPTVVANIGWLGVQQLLTYGGSGYFPQRLVRQLIEDGRLWRVPDSPQFKLTAWMVFPREGSATLKSALDGLRTLARDEQARL	not soluble
MTEKALDSKQTGYCLSTDHYRIRRALPSDYDSILALWEDARHTMLASDNPQWQGAYPGETEAQEDIARGEAFLLDIAGTPLGVMAVNDQMPAEYGSLPWQTEGKAYTIHRLGVHSSLLRKGYAAAMLFSAETIAREQGGTCIRIDTYSPNTAAQSLFRRLGYRQVCSFHMKQKPLPYIAFEKSLLKQLGSG	not soluble
MSKYAGIVLAGGMSSRFGEPKALAIWKETTFVEHIVKVMGNTLQDIVVISHTDIKERVEQFVQVPVIEDIPHYKGNGPLAGIVSGMEYIEADWYAIMPCDAPNVSHEWFTILLEQTNNEYDAVVPIINGRKQPLLAAYHNRVKEKIYALLQEEKRSMGQLLSQCNVKYVSGEDVQANADWFINVNTKEEYVQAQKDLSNE	soluble
MSNSDDEIQEIEAKRQKMSQEDSEVEIEILDEPEQGKLKNSSMSDEQKLHEFAIITATDEAFAQSILQDVDWDLKKALDVFYGSEAFAEARSAAVMGASSSMASSGAAVMTAEDLKGFEVSVMSWNIDGLDGRSLLTRMKAVAHIVKNVNPDILFLQEVVDRDLAPIDKLQSLYKIYYSNKGCQYYTAILVSKMFDVEKHDVIHFQNSGMYRTLQILEGSIGGLKVFLLNTHLESTREHRPQRCAQFGFCMDKVREIIAQNPGALVFFGGDLNLRDEEVSRVPDGVKDAWEAAGSDNKTKFTWDTFKNDNKQGFHGAKMRFDRLYWSGPLDKVKFTLEGRQRIRSCLCFPSDHWAINATFFA	not soluble
MAHHHHHHMDGGGRVAGTGVQLKPATVHGSVECVEFDKLSGSSNLFALQTMPVYFGASRVPWRLLDVGVKERKPASESGSAGAAMWLALVRFPPRGACPMPAAMGGWGVR	not soluble
YQQDQVVKEDNIEAVGKKLHKYNTQFQEKSREYDRLYEEYTRTSQEIQMKRTAIEAFNETIKIFEEQCQTQERYSKEYIEKFKREGNEKEIQRIMHNYDKLKSRISEIIDSRRRLEEDLKKQAAEYREIDKRMNSIKPDLIQLRKTRDQYLMWLTQKGVRQKKLNEWLGN	soluble
MSAVKKQRIDLRLTDDDKSMIEEAAAISNQSVSQFMLNSASQRAAEVIEQHRRVILNEESWTRVMDALSNPPSPGEKLKRAAKRLQGM	soluble
MNNLYPYGAPDSNLYARKQEEYDQQIAEAILAGIKREATAIELYRRLADEAPSEQHQHDIRQALENKQASLTQFTNAYRILTGQQPQLEVDDVSFYRFHEGLQKAYEIEVEGYEEYERSSALTENPHVQHAFWTALNTEYENTTRLYRSLHEEADHRVTDHGPRPFVVNIEDETKRNRAFRRALWTGDHLQVTLMSIQVGEDIGLEIHPHLDQFLRVEEGRGLVQMGHRQDNLHFQEEVFDDYAILIPAGTWHNVRNTGNRPLKLYSIYAPPQHPHGTVHETKAIAMAAEEHHHL	soluble
MAHHHHHHMYRLVKFLYVNLLASTDLKRKYARAGDWAIVTGATEGIGYAMAMELARRGFNVCVVARTRSKLDAVVAEIEKKGVQGKAVVFDFSTADAQAYKRLFAELELLEVAILVNNVGVNYPYANYFDEADVEEDMKMLKVNCEATLRMTRFIVPRLKAKRSGGIVFLSSISATVPSPLLSAYAGTKSLSLSFGEGLAYELQQFGVDVLTVTPSLVVSRMTQGVSSRKPKETLFMVNAAAMAHQTLNKLGIVTRTAGHINHALLNSCLRILPESLVANKILTMHQAIKRRAERSRTQ	not soluble
MSLSSTNDTIRRLQRDLLFLQNELRFEKFVRQQHLQNIGKLHREHILDMAVESERQKLLLTNKRYKAQIELLNSEIDKHRSESQAALNRRVKWENDFNNKIKALREEKKAWKSEESELKSSIESLISQLESIRNSQIDIAFSKNQLELKLQLYETKLKEYEQHLSCVNISKKQVSSSSDTSFGNTKMDSSMILSNSEAVSDEQERELIESEKHRMKLESENLHLQANIELLKKDLEAINVVYEAKIFDLEKRLSSEANAPELHNPVNLNYDAQLSKISEIKENYDELLTRYRELEGKFLESQAEVEELKNFQKPLVDTGSSIHSSPGLQQSKFIIRNDSLHPKVGPPRRQSTDTSRSTFRQYEGHHHHHH	soluble
MKGYQSLVFNFFFLKLSAENESTPIQQLLEHFLRQLQRKDPHGFFAFPVTDAIAPGYSMIIKHPMDFGTMKDKIVANEYKSVTEFKADFKLMCDNAMTYNRPDTVYYKLAKKILHAGFKMMSKERLLALKRSMSFMQDMDFSQQAALLGNEDTAVEEPVPEVVPVQVETAKKSKKPSREVISCMFEPEGNACSLTDSTAEEHVLALVEHAADEARDRINRFLPGGKMGYLKRNGDGSLLYSVVNTAEPDADEEETHPVDLSSLSSKLLPGFTTLGFKDERRNKVTFLSSATTALSMQNNSVFGDLKSDEMELLYSAYGDETGVQCALSLQEFVKDAGSYSKKVVDDLLDQITGGDHSRTLFQLKQRRNVPMKPPDEAKVGDTLGDSSSSVLEFMSMKSYPDVSVDISMLSSLGKVKKELDPDDSHLNLDETTKLLQDLHEAQAERGGSRPSSNLSSLSNASERDQHHLGSPSRLSVGEQPDVTHDPYEFLQSPEPAASAKT	soluble
MSLRAAARELSVGHTPTIGLVVADLANPFFAQLADRVVWEARSHGVQVMVMTTQEDPHLEADSLDTLLDRSVGGVIATPTGANIEKWARLQSLGVNVVFVDRTIPELEDVDLVSIENVDSARRATEHMLGLGHRRIGLITGPVSTSTGRSRIEGYKAAHNNFSISVDPQLIRDVAFRGDGGGDAVGSLLALPDRPTALIVANTAQVLSSVRRLVQIGVRIPDDLSVIVFDDNPWTELTNPPLSVIRQPIDMLAVHSLELVLGRMQGRLPAAPRTIEVKADFVPRSSCSPLALSEGHHHHHH	soluble
SVGGGGSGGGLLENANPLIYERSGERPVTAGEEDEEVPDSIDAREIFDLIRSINDPEHPLTLEELNVVEQVRIQVSDPESTVAVAFTPTIPHCSMATLIGLSIKVKLLRSLPQRFKMDVHITPGTHASEHAVNKQLADKERVAAALENTHLLEVVNQCLSARS	soluble
SPGRSSSNSGSTGFISFSGVESALSSLKNFQACINSGMDTASSVALDLVESQTEVSSEYSMDKAMVEFATLDRQLNHYVKAVQSTINHVKEERPEKIPDLKLLVEKKFLALQSKNSDADFQNNEKFVQFKQQLKELKKQCGLQADREADGTEGVDEDIIVTQSQTNFTCPITKEEMKKPVKNKVCGHTYEEDAIVRMIESRQKRKKKAYCPQIGCSHTDIRKSDLIQDEALRRAIENHNKKRHRHSE	soluble
LSDVLVPTAGGLSSDLSAAVAKALEETFGVAVSLLHVVDPGEEESGRQFMYEWAAEHGLSDAELRIETGDIEATIERLGRDYSLVIVGATERGLLSRIVRGSLVFDVIETLDTPVLLAERPSSRSLRERLFGRE	not soluble
MPDGTIDGGHPQRPASPRLRSPLLRLATWNVNSIRTRLDRVLDWLGRADVDVLAMQETKCPDGQFPALPLFELGYDVAHVGFDQWNGVAIASRVGLDDVRVGFDGQPSWSGKPEVAATTEARALGATCGGIRVWSLYVPNGRALDDPHYTYKLDWLAALRDTAEGWLRDDPAAPIALMGDWNIAPTDDDVWSTEFFAGCTHVSEPERKAFNAIVDAQFTDVVRPFTPGPGVYTYWDYTQLRFPKKQGMRIDFILGSPALAARVMDAQIVREERKGKAPSDHAPVLVDLHAG	not soluble
MMEEQLIPIQWKDDALVLLDQTLLPNEIVYESFKTAESVWDAIQVMKVRGAPAIGVSAAYGVYLGIKEFAESTEEGFMDEVRKVCTYLATSRPTAVNLFWALERMESVATDNIHLSISQLKNRLLEEAKEIHREDEEINRQIGEHALTLFHDGMGVLTHCNAGALATTKYGTATAPMYLAKEKGWDLKIYSDETRPRLQGSTLTALELQRAGIDVTVITDNMAAMVMSQGKIDAVIVGCDRVAANGDVANKIGTLGVSILAKYYNIPFYVAAPTPTIDLKTSTGKEIPIEERDASEVINRFGKYSAPKESKVYNPAFDVTPHENVTAIITEKGIVKAPFTENLKKLFQ	not soluble
MRYFLCPGKTDMRKGMNSLCGVIHNKMGYDVRLGDVFIFINRQRTTMKLLHAEDGDLVLYIKRLEEGTFRLPEYDQQSRSYPMEWRDLVMMVKGINNGSAKRLKRLKALRKSDI	not soluble
MLPPGMVAAESDFYLRRLWGLPHEDLKSEPRYLATFTVGINQKANIDACVKKFSENFTIVLFHYDGRVTEWDEFEWSKTAIHISVRKQTKWWYAKRFLHPDIVARYDYIFVWDEDLGVEHFNAEEYVKMVKKHGLEISQPGLEPNQGLTWQMTKRRGDMEVHKITEERPGWCSDPHLPPCAAYVEIMAPVFSRNAWRCVWHVIQNDLVHGWGLDFALRRCVEPAHEKIGVVDSQWVVHQSFPSLGNQGEATDGKAPWQGVRDRCKKEWTMFQSRMANAEKDYFKSLQVEGSSNSTATTI	soluble
MRGSGQFRVIGPGHPIRALVGDEAELPCRISPGKNATGMEVGWYRSPFSRVVHLYRNGKDQDAEQAPEYRGRTELLKESIGEGKVALRIQNVRFSDEGGYTCFFRDAEYQEEAAVELKVEDPFYWINPGRSRSHHHHHH	soluble
MGFGNINFCAVDLGSHKITVAIGQLAENNSIKILGVSQKQSKGIKQGSVINLEIAMETLNAALDEAKSIAGVDVKEVTLGVSAPSISGFNSYGLAAVENGEVSIEDLAMAIKTAKAVPMSADTEMLHVLQRDYIVDGQAGVTEPIGMFAVRLESNVHIIVASSRLLQNVRKCVSNCGYSISNLVVEHLAASSATLTDNEKEMGVCLVNIGADSTSFSVFADGGICYTSSIKTGGASISSDISKVFRLPIEAAESLKLQYGYAASKYLKNPDEKIDIPNSLGNAKKRISLQDLSLVIEARVEEIFESLYRELDQHRLLEVISSGIVFTGGGAKLKGLARLAEDMFKLPVRVGGPIEVSGANEVVHNPSYATVVGLLKYAAENSDTSNQQKIEEDVMEIDENTGKSKKKIISSVKGWFSNNF	not soluble
MGSDKIHHHHHHMKILFLADEESKMYWEYFKKEDFKGIDIIVSCGDLNPSYLSFLTTMVGVPLLYVHGNHDDKYNVKPPEGCICIEDEIYEYEGVRFLGLGGSNRYKPGENQYTQKEMTKRVKKLWWKLKRKNGFDVLVTHSPAKGLHDGEDTCHTGFDVFNRLIEQYKPRYFVHGHVHMSYGRQFVRLDKVGETTVINAYEKYIVEI	not soluble
MTLKFSYFGTRGIGEPIRMLLTDQEVAFIDHRFSWEQWADIKPTMIFGSCPCLTMGDKEIVQSGTIIRHLARIHGLNGTNEEETIFIDMFYEGVRDLHATYATMIYQNYENGRQPFIQDVLPEHLARLEKLFRTYENGENFVAGANISYVDYVLFEELDIQKILSPTALDRTPQLKKFHEQFGERKNLTEYLKKRAIMKTPVNGNGKQ	not soluble
MKKIILIGSGGSGKSTLARQLGNKLNIKVHHLDALFWKPNWEGVPREEQITVQNNLIKDEKWIIDGNYGGTMGIRLNAADTIIFLDIHRTICVYRAFKRIVKYRNKTRPDMGAGCEERFDLQFFKWIWEYPNAKRPTILKELEQLPEEKKVIVLKSPNEVRKFLEHI	soluble
